Target: T1, Kv2.1 surface clusters (Rattus norvegicus, UniProt P15387)
T1 construct: expressed in transfected cells; host or cells: primary rat cortical neurons (E16-17 Sprague-Dawley), Lipofectamine 2000
T1 sequence (P15387 1-857): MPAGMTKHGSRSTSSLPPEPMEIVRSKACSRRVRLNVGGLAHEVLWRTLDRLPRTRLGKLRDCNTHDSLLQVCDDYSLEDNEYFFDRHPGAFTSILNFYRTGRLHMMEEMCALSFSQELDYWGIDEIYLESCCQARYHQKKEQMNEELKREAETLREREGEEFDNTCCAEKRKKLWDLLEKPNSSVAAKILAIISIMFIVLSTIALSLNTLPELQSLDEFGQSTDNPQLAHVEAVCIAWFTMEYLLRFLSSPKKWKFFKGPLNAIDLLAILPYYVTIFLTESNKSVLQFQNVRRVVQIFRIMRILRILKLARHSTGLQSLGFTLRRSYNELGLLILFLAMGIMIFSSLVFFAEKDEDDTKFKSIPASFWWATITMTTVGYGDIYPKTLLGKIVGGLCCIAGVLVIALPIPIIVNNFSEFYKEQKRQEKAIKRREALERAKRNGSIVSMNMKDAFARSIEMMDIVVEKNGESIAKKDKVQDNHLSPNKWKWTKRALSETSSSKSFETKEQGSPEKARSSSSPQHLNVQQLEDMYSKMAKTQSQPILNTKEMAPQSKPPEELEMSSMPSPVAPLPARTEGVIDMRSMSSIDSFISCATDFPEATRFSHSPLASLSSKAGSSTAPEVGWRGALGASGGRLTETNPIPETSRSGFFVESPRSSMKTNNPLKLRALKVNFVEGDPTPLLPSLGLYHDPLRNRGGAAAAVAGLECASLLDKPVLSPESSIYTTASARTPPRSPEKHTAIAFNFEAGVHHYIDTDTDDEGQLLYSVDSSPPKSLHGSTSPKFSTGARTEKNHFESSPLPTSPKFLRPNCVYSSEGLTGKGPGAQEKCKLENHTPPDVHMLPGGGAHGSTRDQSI
Assay: Kv2.1 surface cluster density in live cortical neurons co-transfected with Kv2.1-GFP and peptide-expressing plasmids
Type: cell-based
Settings: plasmid-driven expression, 24 h after transfection, mean+/-SEM (FIG. 1C)
Description: In vitro experiments utilized primary cortical neuronal cultures prepared from embryonic day 16-17 Sprague-Dawley rats of either sex in a protocol described previously (McCord et al., J Physiol (Lond). 592: 3511-3521, 2014). Timed-pregnant rats (Charles River Laboratories, Wilmington, Mass.) were sacrificed by CO2 inhalation. Embryonic cortices were dissociated with trypsin (0.6 mg/mL) and cells plated in sterile 6-well plates on poly-L-ornithine-coated glass coverslips at a density of 670,000 cells per well. Cytosine arabinoside (1-2 μM) was utilized to inhibit non-neuronal proliferation on day 14 in vitro (DIV); cultures were utilized at 21-25 DIV.
Transfections were performed with Lipofectamine 2000 (L2K; Invitrogen, Carlsbad, Calif.). Cortical neuronal cultures on glass coverslips were placed into wells containing 500 μL of Dulbecco's minimum essential medium with 2% HyClone bovine serum (D2C; Thermo Fisher Scientific, Waltham, Mass.). A mixture of 1.5 μg of total cDNA and 2 μL of L2K was prepared in 100 μL of Opti-MEM I (Life Technologies Corp., Grand Island, N.Y.) for each well and added. […]
To analyze Kv2.1 distribution in live primary cortical neurons, cells were transfected with both a tdTomato construct and a GFP-tagged Kv2.1 construct (O'Connell, et al., J Neurosci. 26: 9609-9618, 2006) and imaged on a Nikon A1+ confocal microscope (Nikon, Tokyo, Japan). […] For live images of transfected neurons, object count parameters were customized to define a Kv2.1 cluster as an area of high intensity GFP fluorescence (compared to background), measuring 0.05 μm^2 or larger (Schulien et al., J Physiol (Lond). 594: 2647-2659, 2016). Kv2.1 cluster density was calculated by normalizing the number of Kv2.1 clusters counted to the somatic area of each neuron (#Kv2.1 clusters/μm^2). […] In each neuron analyzed, two populations on Kv2.1-GFP expression were first noted—(a) highly localized signals of clustered Kv2.1 channels, and (b) diffuse background staining that represents freely-dispersed, conducting Kv2.1 channels on the plasma membrane. […]

Row | Substance | mean Kv2.1 surface cluster density
1 | Kv2.2 CT: Kv2.2 channel C-terminal peptide expressed from plasmid pCMV-Kv2.2CT (EVIVDMKSTSSIDSFTSCATDFTETE) | 0.07±0.01 #Kv2.1 clusters/μm^2 of neuronal soma
2 | MKSTSSIDSFTS [DP-1, plasmid expressed expanded declustering peptide (pCMV-DP-1)] | 0.04±0.01 #Kv2.1 clusters/μm^2 of neuronal soma
3 | MKSTSDFSSIST [Sc-1, plasmid expressed scrambled control of DP-1 (pCMV-Sc-1)] | 0.14±0.03 #Kv2.1 clusters/μm^2 of neuronal soma

Reference: patent US11673916B2, “Neuroprotective peptides and methods of their use” (University of Pittsburgh—Of the Commonwealth System of …, priority 2020, dated 2023)
